Source: US20040229298A1
“And” between values parts separate entries of the source, which are not always exact repeats. Identical values can stand only once. Ends that are not written are not given here.

Columns and labels:
[1] = target: GST-PSD95 PDZ domains 1-3 (human), P78352; test: Matrix/G assay ELISA, E6 peptide titrated on GST-PDZ
[2] = target: GST-SIP1 PDZ domain 1 (human); test: as above
[3] = target: GST-SAST1 PDZ domain (human), Q9Y2H9; test: as above
[4] = target: GST-DLG3 PDZ domains 1-2 (human), Q92796; test: as above
Chain of GST-DLG3 PDZ domains 1-2 (human), Q92796 (Q92796 other isoform, or with tags, fused parts or gaps limits assumed): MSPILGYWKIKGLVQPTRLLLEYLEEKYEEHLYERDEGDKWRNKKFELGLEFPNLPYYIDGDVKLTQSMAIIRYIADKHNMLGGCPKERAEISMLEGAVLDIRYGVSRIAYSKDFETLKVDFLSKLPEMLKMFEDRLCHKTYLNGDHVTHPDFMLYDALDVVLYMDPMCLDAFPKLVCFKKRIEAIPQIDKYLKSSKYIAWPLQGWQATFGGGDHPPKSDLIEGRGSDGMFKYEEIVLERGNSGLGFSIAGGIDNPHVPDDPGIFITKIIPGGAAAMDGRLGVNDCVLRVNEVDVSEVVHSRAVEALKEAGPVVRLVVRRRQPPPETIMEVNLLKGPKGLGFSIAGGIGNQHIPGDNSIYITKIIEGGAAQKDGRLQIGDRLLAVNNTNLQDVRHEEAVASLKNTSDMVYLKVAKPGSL

[5] = target: GST-PSD95 PDZ domain 2 (human); test: as above
[6] = target: GST-MAGI1 PDZ domain 2 (human); test: as above
[7] = target: GST-DLG2 PDZ domain 3 (human); test: as above
[8] = target: GST-SAST2 PDZ domain 1 (human); test: as above
[9] = target: GST-KIAA0751 PDZ domain 1 (human); test: G assay ELISA, 10 uM biotin peptide on anti-GST-captured GST-PDZ
[10] = target: GST-KIAA0973 PDZ domain 1, clone #148.5 (human); test: as above
[11] = target: GST-FLJ12615 PDZ domain 1 (human); test: as above
[12] = target: GST-HTRA 3 PDZ domain 1 (human); test: as above
[13] = target: GST-MUPP1 PDZ domain 10 (human); test: as above
[14] = target: GST-NSP PDZ domain 1, clone #42.5 (human); test: as above
[15] = target: GST-DLG1 PDZ domain 3 (human); test: as above
[16] = target: GST-X-11 beta PDZ domain 2 (human); test: as above
[17] = target: GST-INADL PDZ domain 4 (human); test: as above
[18] = target: GST-Syntrophin gamma 1 PDZ domain 1 (human); test: as above
[19] = target: GST-ERBIN PDZ domain 1 (human); test: as above
[20] = target: GST-EBP50 PDZ domain 1, clone #311.1 (human); test: as above
[21] = target: GST-EBP50 PDZ domain 1, clone #167.2 (human); test: as above
[22] = target: GST-AF6 PDZ domain 1 (human); test: as above
[23] = target: GST-KIAA0147 PDZ domain 4 (human); test: as above
[24] = target: GST-KIAA1719 PDZ domain 3 (human); test: as above
[25] = target: GST-MAGI 1 PDZ domain 4 (human); test: as above
[26] = target: GST-Shank 3 PDZ domain 1 (human); test: as above
[27] = target: GST-Serine Protease PDZ domain 1 (human); test: as above
[28] = target: GST-KIAA0561 PDZ domain 1 (human); test: as above
[29] = target: GST-FLJ11215 PDZ domain 1 (human); test: as above

B1: HPV16 E6 C-terminal PDZ ligand peptide (20 mer, biotinylated), P03126 139-158 (peptide)
peptide: WTGRCMSCCRSSRTRRETQL
modifications: not fully specified; cysteine pairing not given here
Binder B1 has an EC50 [1] of 1000 nM, an EC50 [2] of 7500 nM and an EC50 [3] of 580 nM. The EC50 [4] was 3800 nM, the EC50 [5] was 6800 nM and the EC50 [6] was 56 nM. The EC50 [7] was 1600 nM, the EC50 [8] was 1200 nM and the Ave OD [9] was 0.451 A450 nm. For the same binder, the OD S/N (ratio to GST only well) [9] was 2.1, the Ave OD [10] was 0.378 A450 nm and the OD S/N (ratio to GST only well) [10] was 1.68. For the same binder, the Ave OD [11] was 0.461 A450 nm, the OD S/N (ratio to GST only well) [11] was 2.24 and the Ave OD [12] was 0.413 A450 nm. For the same binder, the OD S/N (ratio to GST only well) [12] was 1.34, the Ave OD [13] was 0.393 A450 nm and 0.392 A450 nm and the OD S/N (ratio to GST only well) [13] was 2.03 and 1.96. It also gave an Ave OD [14] of 0.416 A450 nm, an OD S/N (ratio to GST only well) [14] of 1.95 and an Ave OD [15] of 0.398 A450 nm. The OD S/N (ratio to GST only well) [15] was 2.45, the Ave OD [16] was 0.431 A450 nm and 0.426 A450 nm and the OD S/N (ratio to GST only well) [16] was 2.95 and 1.78. It also gave an Ave OD [17] of 0.357 A450 nm, an OD S/N (ratio to GST only well) [17] of 2.15 and an Ave OD [18] of 0.358 A450 nm. The OD S/N (ratio to GST only well) [18] was 2, the Ave OD [19] was 0.36 A450 nm and 0.342 A450 nm and the OD S/N (ratio to GST only well) [19] was 1.82 and 1.3. The Ave OD [20] was 0.432 A450 nm, the OD S/N (ratio to GST only well) [20] was 2.05 and the Ave OD [21] was 0.381 A450 nm and 0.355 A450 nm. For the same binder, the OD S/N (ratio to GST only well) [21] was 1.94 and 2.28, the Ave OD [22] was 0.444 A450 nm and the OD S/N (ratio to GST only well) [22] was 1.8. The Ave OD [23] was 0.38 A450 nm, the OD S/N (ratio to GST only well) [23] was 2.34 and the Ave OD [24] was 0.346 A450 nm. The OD S/N (ratio to GST only well) [24] was 1.65, the Ave OD [25] was 0.395 A450 nm and the OD S/N (ratio to GST only well) [25] was 1.2. It also gave an Ave OD [26] of 0.396 A450 nm, an OD S/N (ratio to GST only well) [26] of 2.61 and an Ave OD [27] of 0.343 A450 nm. The OD S/N (ratio to GST only well) [27] was 1.55, the Ave OD [28] was 0.347 A450 nm and the OD S/N (ratio to GST only well) [28] was 2.44. For the same binder, the Ave OD [29] was 0.449 A450 nm and the OD S/N (ratio to GST only well) [29] was 2.77.
